Laboratory results as given in patent publication US10081667B2, “Composition and method for therapeutic agent delivery during pregnancy” (University of Mississippi Medical Center, priority 2013, dated 2018).

B1: ELP-VEGF: ELP sequence (SEQ ID NO: 4) fused to a C-terminal VEGF121 sequence, SEQ ID NO: 14; 73 kDa protein (protein)
chain: MSKGPGVGVPGAGVPGGGVPGAGVPGGGVPGAGVPGGGVPGAGVPGGGVPGAGVPGGGVPGAGVPGGGVPGAGVPGGGVPGAGVPGVGVPGAGVPGGGVPGAGVPGGGVPGAGVPGGGVPGAGVPGGGVPGAGVPGGGVPGAGVPGGGVPGAGVPGGGVPGAGVPGVGVPGAGVPGGGVPGAGVPGGGVPGAGVPGGGVPGAGVPGGGVPGAGVPGGGVPGAGVPGGGVPGAGVPGGGVPGAGVPGVGVPGAGVPGGGVPGAGVPGGGVPGAGVPGGGVPGAGVPGGGVPGAGVPGGGVPGAGVPGGGVPGAGVPGGGVPGAGVPGVGVPGAGVPGGGVPGAGVPGGGVPGAGVPGGGVPGAGVPGGGVPGAGVPGGGVPGAGVPGGGVPGAGVPGGGVPGAGVPGVGVPGAGVPGGGVPGAGVPGGGVPGAGVPGGGVPGAGVPGGGVPGAGVPGGGVPGAGVPGGGVPGAGVPGGGVPGAGVPGVGVPGAGVPGGGVPGAGVPGGGVPGAGVPGGGVPGAGVPGGGVPGAGVPGGGVPGAGVPGGGVPGAGVPGGGVPGAGVPGVGVPGAGVPGGGVPGAGVPGGGVPGAGVPGGGVPGAGVPGGGVPGAGVPGGGVPGAGVPGGGVPGAGVPGGGVPGAGVPGVGVPGAGVPGGGVPGAGVPGGGVPGAGVPGGGVPGAGVPGGGVPGAGVPGGGVPGAGVPGGGVPGAGVPGGGVPGAGVPGVGVPGAGVPGGGVPGAGVPGGGVPGAGVPGGGVPGAGVPGGGVPGAGVPGGGVPGAGVPGGGVPGAGVPGGGVPGAGVPGWPGSGAPMAEGGGQNHHEVVKFMDVYQRSYCHPIETLVDIFQEYPDEIEYIFKPSCVPLMRCGGCCNDEGLECVPTEESNITMQIMRIKPHQGQHIGEMSFLQHNKCECRPKKDRARQEKCDKPRR
modifications: synthetic ELP-VEGF sequences
notes: 73 kDa protein
B2: SynB1-ELP-p50: SynB1 peptide fused to N-terminus of ELP (SEQ ID NO: 4), p50 peptide at the C-terminus; SEQ ID NO: 15 (protein)
chain: MRGGRLSYSRRRFSTSTGRGCGPGVGVPGAGVPGGGVPGAGVPGGGVPGAGVPGGGVPGAGVPGGGVPGAGVPGGGVPGAGVPGGGVPGAGVPGGGVPGAGVPGVGVPGAGVPGGGVPGAGVPGGGVPGAGVPGGGVPGAGVPGGGVPGAGVPGGGVPGAGVPGGGVPGAGVPGGGVPGAGVPGVGVPGAGVPGGGVPGAGVPGGGVPGAGVPGGGVPGAGVPGGGVPGAGVPGGGVPGAGVPGGGVPGAGVPGGGVPGAGVPGVGVPGAGVPGGGVPGAGVPGGGVPGAGVPGGGVPGAGVPGGGVPGAGVPGGGVPGAGVPGGGVPGAGVPGGGVPGAGVPGVGVPGAGVPGGGVPGAGVPGGGVPGAGVPGGGVPGAGVPGGGVPGAGVPGGGVPGAGVPGGGVPGAGVPGGGVPGAGVPGVGVPGAGVPGGGVPGAGVPGGGVPGAGVPGGGVPGAGVPGGGVPGAGVPGGGVPGAGVPGGGVPGAGVPGGGVPGAGVPGVGVPGAGVPGGGVPGAGVPGGGVPGAGVPGGGVPGAGVPGGGVPGAGVPGGGVPGAGVPGGGVPGAGVPGGGVPGAGVPGVGVPGAGVPGGGVPGAGVPGGGVPGAGVPGGGVPGAGVPGGGVPGAGVPGGGVPGAGVPGGGVPGAGVPGGGVPGAGVPGVGVPGAGVPGGGVPGAGVPGGGVPGAGVPGGGVPGAGVPGGGVPGAGVPGGGVPGAGVPGGGVPGAGVPGGGVPGAGVPGVGVPGAGVPGGGVPGAGVPGGGVPGAGVPGGGVPGAGVPGGGVPGAGVPGGGVPGAGVPGGGVPGAGVPGGGVPGAGVPGWPGSGGVQRKRQKLMP
modifications: synthetic SynB1-ELP-p50 sequence

Key:
[1] = test system: rat model of preeclampsia; assay: Blood pressure in the reduced uterine perfusion (RUPP) rat model of preeclampsia; format: in vivo, rats; conditions: 1 mg/kg/day IP minipump GD14 to GD19, measured GD19
Protocol: FIG. 13 is a bar graph showing effect of ELP-VEGF on blood pressure in the reduced uterine perfusion model. A study was conducted in pregnant rats subjected to surgical reduction of uterine blood flow (RUPP) on gestational day 14 (GD14). ELP-VEGF or saline control was administered by continuous infusion via IP minipump from GD14 to GD19 at a dose of 1 mg/kg/day. Data represent the mean arterial pressure as assessed by indwelling carotid catheters on GD19. Individual animal data are indicated by the points.
Whether ELP-VEGF was effective for lowering blood pressure in a rat model of preeclampsia is texted next. Pregnant rats at gestational day 14 (GD14) were subjected to surgery to reduce ale blood flow to the placentas. It has previously been shown that this model, achieved by partially restricting the ovarian arteries and the dorsal aorta, results in a preeclampsia-like syndrome in the rat. The effects mirror human preeclampsia in that the rats develop hypertension, proteinuria, reduced renal function, fetal growth restriction, and some fetal loss. […] The hypertension associated with this model can be seen in FIG. 13, where the mean arterial pressure increased from about 105 mmHg in normal pregnant rats on GD19 to over 120 mmHg in the preeclampsia model as measured by a pressure transducer inserted into a carotid arterial catheter.

[2] = ELP-VEGF pharmacokinetics and biodistribution in mice after bolus IV; format: in vivo, C57/B16 mice
Protocol: FIG. 12 includes graphs showing ELP-VEGF pharmacokinetics and biodistribution. FIG. 12A. Fluorescently labeled free VEGF or ELP-VEGF were administered by IV injection to C57/B16 mice. Plasma levels were determined by direct fluorescence quantitation and fit to a two-compartment pharmacokinetic model. FIG. 12B. […] FIG. 12D.
In addition to examining the ELP-VEGF activity in vitro, the pharmacokinetics (PK) and biodistribution of ELP-VEGF in comparison to free VEGF121 is also determined. Both free VEGF121 and ELP-VEGF were fluorescently labeled, and their PK and biodistribution were determined in mice after bolus intravenous administration. […] This is consistent with other reports of approximately a 30 minute half-life for recombinant VEGF in humans. ELP-VEGF cleared more slowly than free VEGF121 (FIG. 12A). […] Four hours after the infusion, the biodistribution was determined by ex vivo whole organ fluorescence imaging.

[3] = test system: human umbilical vein endothelial cells (HUVECs); assay: HUVEC proliferation, MTS cell proliferation assay; format: cell-based; conditions: 72 h exposure
Protocol: FIG. 9 is a bar graph showing ELP-VEGF stimulation of HUVEC proliferation. HUVEC cell proliferation was determined after 72 h exposure to ELP, VEGF, or ELP-VEGF at the indicated concentrations using the MTS cell proliferation assay.
Proliferation of human umbilical vein endothelial cells (HUVECs) is stimulated when the cell are exposed to VEGF.

endothelin-1 = assay: Endothelin-1 release by HUVECs, ELISA; format: cell-based, human
Protocol: FIG. 15 includes a graph illustrating the inhibition of endothelin release by SynB1-ELP-p50. HUVECs growing in 24-well plates were treated with 50 μM SynB1-ELP or SynB1-ELP-p50 overnight, then 50 or 100 ng/mL […]. Cells were incubated overnight, and culture media was collected and frozen.
TNFα stimulation also leads to the secretion of the vasoactive peptide endothelin-1 by HUVECs. This endothelin release contributes to the hypertension associated with the pro-inflammatory environment in preeclampsia.

NF-κB = assay: In vitro NF-κB activation assay: nuclear localization of NF-κB in TNFα-stimulated HUVECs; format: cell-based, human; conditions: 20 μM pretreatment 24 h, TNFα 1 h
Protocol: FIG. 14 includes images and a bar graph illustrating inhibition of NF-κB activation with an ELP-delivered p50 peptide. FIG. 14A. Localization of NF-κB in HUVEC cells before and after TNFα stimulation. HUVECs were treated with SynB1-ELP control or SynB1-ELP-p50 (20 μM) for 24 h. Cells were then stimulated for 1 h with TNFα, and NF-κB localization was determined by immunostaining for the p65 subunit (green) and for nuclei with DAPI (blue). FIG. 14B. The nuclear cytoplasmic ratio of NF-κB staining was determined under each treatment condition. Data represent the mean of 30-60 cells per treatment and are averaged over three experiments.
This investigation has developed an ELP-fused peptide inhibitor of activated NF-κB. NF-κB activation upon extracellular signaling is mediated by phosphorylation and release of the natural inhibitor I-κB from the NF-κB p50/p65 heterodimer. I-κB release exposes a nuclear localization sequence (NLS) on the p50 subunit of NF-κB, and once exposed, this NLS mediates nuclear import of NF-κB. Once inside the nucleus, NF-κB binds to response elements on its target genes and regulates gene expression. […] Stimulation of cultured HUVECs with TNF-α leads to rapid activation of the NF-κB pathway, and this can be detected by monitoring nuclear localization of NF-κB (FIG. 14A, left panel).

[4] = rat, in vivo

| Molecule | mean arterial pressure [1] | fluorescence in the urine at the end of the experiment [2] | plasma clearance rate relative to free VEGF121 ([2]; IV) | kidney deposition relative to free VEGF121 ([2]; four hours after the infusion) | organ accumulation, ex vivo whole organ fluorescence imaging ([2]; four hours after the infusion) | stimulation of HUVEC proliferation [3] | endothelin release from unstimulated HUVECs (endothelin-1; 50 μM) | endothelin release from TNFα-stimulated HUVECs (endothelin-1; 50 μM pre-treatment overnight) | nuclear translocation of NF-κB after TNF-α stimulation (NF-κB) | entry into fetal circulation / pups [4] | terminal half-life (in words) [4] |
| --- | --- | --- | --- | --- | --- | --- | --- | --- | --- | --- | --- |
| B1 | effectively lowered the blood pressure of the preeclampsia-induced rats to near normal levels | less fluorescence detectable in the urine | about half the rate of free VEGF121 | significantly lower than for free VEGF121 | accumulated more highly in the spleen and liver than did free VEGF121 | stimulated HUVEC proliferation with equal potency | – | – | – | – | – |
| B2 | – | – | – | – | – | – | decreases the endothelin release from unstimulated HUVECs | the endothelin release is completely blocked | completely blocks this nuclear translocation of NF-κB | effectively prevents the peptide from entering the fetal circulation | greater than two hours |
